# According to IntAct's records for PubMed 31515488:
# B1: Homeobox protein VENTX (Homo sapiens), O95231 (parent)
# chain: MRLSSSPPRGPQQLSSFGSVDWLSQSSCSGPTHTPRPADFSLGSLPGPGQTSGAREPPQAVSIKEAAGSSNLPAPERTMAGLSKEPNTLRAPRVRTAFTMEQVRTLEGVFQHHQYLSPLERKRLAREMQLSEVQIKTWFQNRRMKHKRQMQDPQLHSPFSGSLHAPPAFYSTSSGLANGLQLLCPWAPLSGPQALMLPPGSFWGLCQVAQEALASAGASCCGQPLASHPPTPGRPSLGPALSTGPRGLCAMPQTGDAF
# partner: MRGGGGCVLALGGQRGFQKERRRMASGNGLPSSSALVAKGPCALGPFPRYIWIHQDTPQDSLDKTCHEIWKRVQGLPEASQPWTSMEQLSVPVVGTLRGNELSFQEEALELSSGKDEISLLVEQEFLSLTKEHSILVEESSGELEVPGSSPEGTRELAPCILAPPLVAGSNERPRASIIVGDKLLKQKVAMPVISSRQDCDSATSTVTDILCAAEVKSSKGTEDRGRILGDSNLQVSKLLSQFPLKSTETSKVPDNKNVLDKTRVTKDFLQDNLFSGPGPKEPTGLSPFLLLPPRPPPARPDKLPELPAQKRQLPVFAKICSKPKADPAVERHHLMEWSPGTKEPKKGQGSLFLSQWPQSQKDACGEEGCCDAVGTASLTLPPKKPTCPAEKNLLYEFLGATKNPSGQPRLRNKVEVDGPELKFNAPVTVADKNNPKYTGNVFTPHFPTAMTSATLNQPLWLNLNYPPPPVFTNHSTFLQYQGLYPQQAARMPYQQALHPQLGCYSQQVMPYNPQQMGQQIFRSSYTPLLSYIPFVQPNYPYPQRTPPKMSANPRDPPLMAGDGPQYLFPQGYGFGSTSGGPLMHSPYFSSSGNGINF
# B2: PDCD10 and GCKIII kinases-associated protein 1 (Homo sapiens), Q8IY42 (parent)
# chain: MGCRCCKIIQSYLFDPVQVPSPGYVNEVNSCKLDEDDTDKLKGKWSSEVLVQKNDPQRQGSKKTESSSRTADPWEPCWPHQGPLPQGDAGGEHHACGVNGIGPAATPQPTGNSSPTQDDRGSWASTANTVPPTQPFLEGGGTRKQDCVLLASEGTQVMRNGDSRAPSEAESFALEVQDHVFQIPAPDYLQHWGPAGDNVDHNEKDCVFKNHTEDESLEGIQPPVGEHGLNTPFSVRRSWDSLNEDVETEVLSICFNEKGPVHAMPVVDSGNRQEDTHGSDGDGDGEIVDEDAAVAEALAALEAATAGEDLDETD
# B3: BAG family molecular chaperone regulator 5 (Homo sapiens), Q9UL15 (parent)
# chain: MDMGNQHPSISRLQEIQKEVKSVEQQVIGFSGLSDDKNYKKLERILTKQLFEIDSVDTEGKGDIQQARKRAAQETERLLKELEQNANHPHRIEIQNIFEEAQSLVREKIVPFYNGGNCVTDEFEEGIQDIILRLTHVKTGGKISLRKARYHTLTKICAVQEIIEDCMKKQPSLPLSEDAHPSVAKINFVMCEVNKARGVLIALLMGVNNNETCRHLSCVLSGLIADLDALDVCGRTEIRNYRREVVEDINKLLKYLDLEEEADTTKAFDLRQNHSILKIEKVLKRMREIKNELLQAQNPSELYLSSKTELQGLIGQLDEVSLEKNPCIREARRRAVIEVQTLITYIDLKEALEKRKLFACEEHPSHKAVWNVLGNLSEIQGEVLSFDGNRTDKNYIRLEELLTKQLLALDAVDPQGEEKCKAARKQAVRLAQNILSYLDLKSDEWEY
# B4: Beta-taxilin (Homo sapiens), Q8N3L3 (parent)
# chain: MEANHSEQLSAERQSTPPGDSSSLPSHNGLEKEDGQDSPTPVQPPEKEASVHPDISEELNRQLEDIINTYGSAASTAGKEGSARASEQPENAESPDNEDGDCEETTEEAGREPVASGEPPTVKEPVSNKEQKLEKKILKGLGKEANLLMQNLNKLQTPEEKFDFLFKKYAELLDEHRTEQKKLKLLQKKQVQIQKEKDQLQGEHSRAILARSKLESLCRELQRHNKTLKEEALQRAREEEEKRKEITSHFQSTLTDIQGQIEQQSERNMKLCQENTELAEKLKSIIDQYELREEHLDKIFKHRELQQKLVDAKLEQAQEMMKEAEERHKREKEYLLNQAAEWKLQAKVLKEQETVLQAQLTLYSGRFEEFQSTLTKSNEVFATFKQEMDKTTKKMKKLEKDTATWKARFENCNKALLDMIEEKALRAKEYECFVMKIGRLENLCRALQEERNELHKKIRDAEISEKDDQSQHNSDEEPESNVSVDQEIDAEEVNSVQTAVKNLATAFMIIHHPESTPHQSKETQPEIGSSQESADAALKEPEQPPLIPSRDSESPLPPLTPQAEAEGGSDAEPPSKASNSPAGLGAETQCEGLPVGAQADQASWKPEAEASGQAPQAPTEASLQKMEADVPAPACAAEEHVAAMVPACEPSRQPPRAAAEELPVGASAGPQPRNVADTNLEGVD
# partner: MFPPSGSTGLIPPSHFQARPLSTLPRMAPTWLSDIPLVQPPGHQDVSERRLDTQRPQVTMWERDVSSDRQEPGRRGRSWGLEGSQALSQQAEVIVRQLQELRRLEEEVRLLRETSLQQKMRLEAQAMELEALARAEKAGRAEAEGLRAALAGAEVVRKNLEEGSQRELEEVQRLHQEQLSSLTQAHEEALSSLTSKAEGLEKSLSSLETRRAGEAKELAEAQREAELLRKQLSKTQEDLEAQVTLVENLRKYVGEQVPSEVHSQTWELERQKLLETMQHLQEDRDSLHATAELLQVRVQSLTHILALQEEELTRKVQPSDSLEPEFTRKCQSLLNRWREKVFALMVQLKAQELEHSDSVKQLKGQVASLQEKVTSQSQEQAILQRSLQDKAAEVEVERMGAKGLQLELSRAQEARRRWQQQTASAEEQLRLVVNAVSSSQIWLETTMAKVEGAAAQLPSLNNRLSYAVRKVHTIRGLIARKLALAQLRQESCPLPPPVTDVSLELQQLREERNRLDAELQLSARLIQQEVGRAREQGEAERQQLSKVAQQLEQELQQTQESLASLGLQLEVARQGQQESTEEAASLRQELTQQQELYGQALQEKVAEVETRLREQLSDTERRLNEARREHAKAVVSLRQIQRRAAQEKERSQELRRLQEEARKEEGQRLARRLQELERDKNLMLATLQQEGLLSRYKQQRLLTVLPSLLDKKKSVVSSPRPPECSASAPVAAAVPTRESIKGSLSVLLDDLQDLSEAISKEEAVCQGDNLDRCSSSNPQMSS
# B5: Kelch-like protein 3 (Homo sapiens), Q9UH77 (parent)
# chain: MEGESVKLSSQTLIQAGDDEKNQRTITVNPAHMGKAFKVMNELRSKQLLCDVMIVAEDVEIEAHRVVLAACSPYFCAMFTGDMSESKAKKIEIKDVDGQTLSKLIDYIYTAEIEVTEENVQVLLPAASLLQLMDVRQNCCDFLQSQLHPTNCLGIRAFADVHTCTDLLQQANAYAEQHFPEVMLGEEFLSLSLDQVCSLISSDKLTVSSEEKVFEAVISWINYEKETRLEHMAKLMEHVRLPLLPRDYLVQTVEEEALIKNNNTCKDFLIEAMKYHLLPLDQRLLIKNPRTKPRTPVSLPKVMIVVGGQAPKAIRSVECYDFEEDRWDQIAELPSRRCRAGVVFMAGHVYAVGGFNGSLRVRTVDVYDGVKDQWTSIASMQERRSTLGAAVLNDLLYAVGGFDGSTGLASVEAYSYKTNEWFFVAPMNTRRSSVGVGVVEGKLYAVGGYDGASRQCLSTVEQYNPATNEWIYVADMSTRRSGAGVGVLSGQLYATGGHDGPLVRKSVEVYDPGTNTWKQVADMNMCRRNAGVCAVNGLLYVVGGDDGSCNLASVEYYNPVTDKWTLLPTNMSTGRSYAGVAVIHKSL
# B6: E3 ubiquitin-protein ligase CCNB1IP1 (Homo sapiens), Q9NPC3 (parent)
# chain: MSLCEDMLLCNYRKCRIKLSGYAWVTACSHIFCDQHGSGEFSRSPAICPACNSTLSGKLDIVRTELSPSEEYKAMVLAGLRPEIVLDISSRALAFWTYQVHQERLYQEYNFSKAEGHLKQMEKIYTQQIQSKDVELTSMKGEVTSMKKVLEEYKKKFSDISEKLMERNRQYQKLQGLYDSLRLRNITIANHEGTLEPSMIAQSGVLGFPLGNNSKFPLDNTPVRNRGDGDGDFQFRPFFAGSPTAPEPSNSFFSFVSPSRELEQQQVSSRAFKVKRI
# partner: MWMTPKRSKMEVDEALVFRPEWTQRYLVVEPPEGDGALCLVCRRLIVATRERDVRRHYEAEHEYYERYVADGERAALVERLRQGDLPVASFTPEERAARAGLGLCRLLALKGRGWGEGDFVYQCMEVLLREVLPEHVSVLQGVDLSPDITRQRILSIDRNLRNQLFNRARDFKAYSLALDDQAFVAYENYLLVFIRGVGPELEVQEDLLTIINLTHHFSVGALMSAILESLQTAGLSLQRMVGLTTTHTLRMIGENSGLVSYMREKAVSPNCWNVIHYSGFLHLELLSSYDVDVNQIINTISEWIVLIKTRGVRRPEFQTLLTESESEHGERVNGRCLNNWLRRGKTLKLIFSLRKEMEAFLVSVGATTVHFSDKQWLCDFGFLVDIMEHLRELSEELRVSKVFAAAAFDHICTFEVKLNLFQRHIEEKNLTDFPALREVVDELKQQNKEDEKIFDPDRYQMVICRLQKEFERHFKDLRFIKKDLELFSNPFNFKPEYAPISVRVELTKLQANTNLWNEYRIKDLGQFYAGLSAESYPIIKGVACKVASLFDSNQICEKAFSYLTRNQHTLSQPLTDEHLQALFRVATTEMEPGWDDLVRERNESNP
# Variants of: B1
# Details: with ca094_human C1orf94, Q6P1W5
row,Variant,effect of a mutation on the interaction
1,A226E,with no effect
2,M251V,with no effect

# Variants of: B2
# Details: with pdc10_human PDCD10, Q9BUL8
# pdc10_human PDCD10, Q9BUL8, sequence (Q9BUL8 whole entry): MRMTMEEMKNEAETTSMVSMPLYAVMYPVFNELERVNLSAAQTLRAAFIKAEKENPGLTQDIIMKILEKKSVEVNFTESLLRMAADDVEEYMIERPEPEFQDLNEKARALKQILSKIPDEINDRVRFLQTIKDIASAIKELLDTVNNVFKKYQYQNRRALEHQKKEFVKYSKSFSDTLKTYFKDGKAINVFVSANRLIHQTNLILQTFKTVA
row,Variant,effect of a mutation on the interaction
1,A151T,with no effect

# Variants of: B2
# Details: with eif3e_human EIF3E
row,Variant,effect of a mutation on the interaction
1,A151T,with no effect

# Variants of: B3
# Details: with thap1_human THAP1, Q9NVV9
# thap1_human THAP1, Q9NVV9, sequence (Q9NVV9 whole entry): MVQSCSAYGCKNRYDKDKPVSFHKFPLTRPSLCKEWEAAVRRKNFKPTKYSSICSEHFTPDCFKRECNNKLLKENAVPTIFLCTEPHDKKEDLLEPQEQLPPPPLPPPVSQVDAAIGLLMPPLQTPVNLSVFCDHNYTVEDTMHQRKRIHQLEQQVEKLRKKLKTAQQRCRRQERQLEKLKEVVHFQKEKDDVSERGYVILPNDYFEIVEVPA
row,Variant,effect of a mutation on the interaction
1,I279L,with no effect

# Variants of: B4
# Details: with cchcr_human CCHCR1, Q8TD31
row,Variant,effect of a mutation on the interaction
1,I527T,with no effect

# Variants of: B5
# Details: with cul3_human CUL3, Q13618
row,Variant,effect of a mutation on the interaction
1,C164F,disrupting interaction strength
2,R228G,disrupting interaction strength

# Variants of: B6
# Details: with epmip_human EPM2AIP1, Q7L775
row,Variant,effect of a mutation on the interaction
1,Y106H,with no effect
2,T187A,with no effect
3,R104H,disrupting interaction strength
